# Laboratory results as given in patent publication US20240209076A1 (KODIAK SCIENCES, published 2024).
# B1: anti-IL-6 Fab, heavy chain T65I (Fab, V domains shown)
# VH: EVQLVESGGGLVQPGGSLRLSCAASGFTFSPFAMSWVRQAPGKGLEWVAKISPGGSWTYYSDTVIGRFTFSLDTSKSTAYLQMNSLRAEDTAVYYCARQLWGYYALDIWGQGTLVTVSS
# VL: DIQLTQSPSSLSASVGDRVTITCSASISVSYMYWYQQKPGKAPKLLIYDMSNLASGVPSRFSGSGSGTDFTLTISSLQPEDFATYYCMQWSGYPYTFGQGTKVEIK
# notes: see m39
# B2: anti-IL-6 Fab, light chain I47V (Fab, V domains shown)
# VH: EVQLVESGGGLVQPGGSLRLSCAASGFTFSPFAMSWVRQAPGKGLEWVAKISPGGSWTYYSDTVTGRFTFSLDTSKSTAYLQMNSLRAEDTAVYYCARQLWGYYALDIWGQGTLVTVSS
# VL: DIQLTQSPSSLSASVGDRVTITCSASISVSYMYWYQQKPGKAPKLLVYDMSNLASGVPSRFSGSGSGTDFTLTISSLQPEDFATYYCMQWSGYPYTFGQGTKVEIK
# notes: see m39
# B3: anti-IL-6 Fab, light chain L53H (Fab, V domains shown)
# VH: EVQLVESGGGLVQPGGSLRLSCAASGFTFSPFAMSWVRQAPGKGLEWVAKISPGGSWTYYSDTVTGRFTFSLDTSKSTAYLQMNSLRAEDTAVYYCARQLWGYYALDIWGQGTLVTVSS
# VL: DIQLTQSPSSLSASVGDRVTITCSASISVSYMYWYQQKPGKAPKLLIYDMSNHASGVPSRFSGSGSGTDFTLTISSLQPEDFATYYCMQWSGYPYTFGQGTKVEIK
# notes: see m39
# B4: anti-IL-6 Fab, light chain A54Y (Fab, V domains shown)
# VH: EVQLVESGGGLVQPGGSLRLSCAASGFTFSPFAMSWVRQAPGKGLEWVAKISPGGSWTYYSDTVTGRFTFSLDTSKSTAYLQMNSLRAEDTAVYYCARQLWGYYALDIWGQGTLVTVSS
# VL: DIQLTQSPSSLSASVGDRVTITCSASISVSYMYWYQQKPGKAPKLLIYDMSNLYSGVPSRFSGSGSGTDFTLTISSLQPEDFATYYCMQWSGYPYTFGQGTKVEIK
# notes: see m39
# B5: anti-IL-6 Fab, light chain L53R (Fab, V domains shown)
# VH: EVQLVESGGGLVQPGGSLRLSCAASGFTFSPFAMSWVRQAPGKGLEWVAKISPGGSWTYYSDTVTGRFTFSLDTSKSTAYLQMNSLRAEDTAVYYCARQLWGYYALDIWGQGTLVTVSS
# VL: DIQLTQSPSSLSASVGDRVTITCSASISVSYMYWYQQKPGKAPKLLIYDMSNRASGVPSRFSGSGSGTDFTLTISSLQPEDFATYYCMQWSGYPYTFGQGTKVEIK
# notes: see m39
# B6: anti-IL-6 Fab, light chain L53W (Fab, V domains shown)
# VH: EVQLVESGGGLVQPGGSLRLSCAASGFTFSPFAMSWVRQAPGKGLEWVAKISPGGSWTYYSDTVTGRFTFSLDTSKSTAYLQMNSLRAEDTAVYYCARQLWGYYALDIWGQGTLVTVSS
# VL: DIQLTQSPSSLSASVGDRVTITCSASISVSYMYWYQQKPGKAPKLLIYDMSNWASGVPSRFSGSGSGTDFTLTISSLQPEDFATYYCMQWSGYPYTFGQGTKVEIK
# notes: see m39
# B7: anti-IL-6 Fab, light chain A54L (Fab, V domains shown)
# VH: EVQLVESGGGLVQPGGSLRLSCAASGFTFSPFAMSWVRQAPGKGLEWVAKISPGGSWTYYSDTVTGRFTFSLDTSKSTAYLQMNSLRAEDTAVYYCARQLWGYYALDIWGQGTLVTVSS
# VL: DIQLTQSPSSLSASVGDRVTITCSASISVSYMYWYQQKPGKAPKLLIYDMSNLLSGVPSRFSGSGSGTDFTLTISSLQPEDFATYYCMQWSGYPYTFGQGTKVEIK
# notes: see m39
# B8: anti-IL-6 Fab, heavy chain V64F (Fab, V domains shown)
# VH: EVQLVESGGGLVQPGGSLRLSCAASGFTFSPFAMSWVRQAPGKGLEWVAKISPGGSWTYYSDTFTGRFTFSLDTSKSTAYLQMNSLRAEDTAVYYCARQLWGYYALDIWGQGTLVTVSS
# VL: DIQLTQSPSSLSASVGDRVTITCSASISVSYMYWYQQKPGKAPKLLIYDMSNLASGVPSRFSGSGSGTDFTLTISSLQPEDFATYYCMQWSGYPYTFGQGTKVEIK
# notes: see m39
# B9: anti-IL-6 Fab, light chain I27L (Fab, V domains shown)
# VH: EVQLVESGGGLVQPGGSLRLSCAASGFTFSPFAMSWVRQAPGKGLEWVAKISPGGSWTYYSDTVTGRFTFSLDTSKSTAYLQMNSLRAEDTAVYYCARQLWGYYALDIWGQGTLVTVSS
# VL: DIQLTQSPSSLSASVGDRVTITCSASLSVSYMYWYQQKPGKAPKLLIYDMSNLASGVPSRFSGSGSGTDFTLTISSLQPEDFATYYCMQWSGYPYTFGQGTKVEIK
# notes: see m39
# B10: anti-IL-6 Fab, light chain I27F (Fab, V domains shown)
# VH: EVQLVESGGGLVQPGGSLRLSCAASGFTFSPFAMSWVRQAPGKGLEWVAKISPGGSWTYYSDTVTGRFTFSLDTSKSTAYLQMNSLRAEDTAVYYCARQLWGYYALDIWGQGTLVTVSS
# VL: DIQLTQSPSSLSASVGDRVTITCSASFSVSYMYWYQQKPGKAPKLLIYDMSNLASGVPSRFSGSGSGTDFTLTISSLQPEDFATYYCMQWSGYPYTFGQGTKVEIK
# notes: see m39
# B11: anti-IL-6 Fab, heavy chain T65L (Fab, V domains shown)
# VH: EVQLVESGGGLVQPGGSLRLSCAASGFTFSPFAMSWVRQAPGKGLEWVAKISPGGSWTYYSDTVLGRFTFSLDTSKSTAYLQMNSLRAEDTAVYYCARQLWGYYALDIWGQGTLVTVSS
# VL: DIQLTQSPSSLSASVGDRVTITCSASISVSYMYWYQQKPGKAPKLLIYDMSNLASGVPSRFSGSGSGTDFTLTISSLQPEDFATYYCMQWSGYPYTFGQGTKVEIK
# notes: see m39
# B12: anti-IL-6 Fab, light chain A25T (Fab, V domains shown)
# VH: EVQLVESGGGLVQPGGSLRLSCAASGFTFSPFAMSWVRQAPGKGLEWVAKISPGGSWTYYSDTVTGRFTFSLDTSKSTAYLQMNSLRAEDTAVYYCARQLWGYYALDIWGQGTLVTVSS
# VL: DIQLTQSPSSLSASVGDRVTITCSTSISVSYMYWYQQKPGKAPKLLIYDMSNLASGVPSRFSGSGSGTDFTLTISSLQPEDFATYYCMQWSGYPYTFGQGTKVEIK
# notes: see m39
# B13: anti-IL-6 Fab, light chain L46V (Fab, V domains shown)
# VH: EVQLVESGGGLVQPGGSLRLSCAASGFTFSPFAMSWVRQAPGKGLEWVAKISPGGSWTYYSDTVTGRFTFSLDTSKSTAYLQMNSLRAEDTAVYYCARQLWGYYALDIWGQGTLVTVSS
# VL: DIQLTQSPSSLSASVGDRVTITCSASISVSYMYWYQQKPGKAPKLVIYDMSNLASGVPSRFSGSGSGTDFTLTISSLQPEDFATYYCMQWSGYPYTFGQGTKVEIK
# notes: see m39
# B14: anti-IL-6 Fab, light chain I27W (Fab, V domains shown)
# VH: EVQLVESGGGLVQPGGSLRLSCAASGFTFSPFAMSWVRQAPGKGLEWVAKISPGGSWTYYSDTVTGRFTFSLDTSKSTAYLQMNSLRAEDTAVYYCARQLWGYYALDIWGQGTLVTVSS
# VL: DIQLTQSPSSLSASVGDRVTITCSASWSVSYMYWYQQKPGKAPKLLIYDMSNLASGVPSRFSGSGSGTDFTLTISSLQPEDFATYYCMQWSGYPYTFGQGTKVEIK
# notes: see m39
# B15: anti-IL-6 Fab, heavy chain V48Q (Fab, V domains shown)
# VH: EVQLVESGGGLVQPGGSLRLSCAASGFTFSPFAMSWVRQAPGKGLEWQAKISPGGSWTYYSDTVTGRFTFSLDTSKSTAYLQMNSLRAEDTAVYYCARQLWGYYALDIWGQGTLVTVSS
# VL: DIQLTQSPSSLSASVGDRVTITCSASISVSYMYWYQQKPGKAPKLLIYDMSNLASGVPSRFSGSGSGTDFTLTISSLQPEDFATYYCMQWSGYPYTFGQGTKVEIK
# notes: see m39
# B16: anti-IL-6 Fab, heavy chain V64A (Fab, V domains shown)
# VH: EVQLVESGGGLVQPGGSLRLSCAASGFTFSPFAMSWVRQAPGKGLEWVAKISPGGSWTYYSDTATGRFTFSLDTSKSTAYLQMNSLRAEDTAVYYCARQLWGYYALDIWGQGTLVTVSS
# VL: DIQLTQSPSSLSASVGDRVTITCSASISVSYMYWYQQKPGKAPKLLIYDMSNLASGVPSRFSGSGSGTDFTLTISSLQPEDFATYYCMQWSGYPYTFGQGTKVEIK
# notes: see m39
# B17: anti-IL-6 Fab, light chain D49E (Fab, V domains shown)
# VH: EVQLVESGGGLVQPGGSLRLSCAASGFTFSPFAMSWVRQAPGKGLEWVAKISPGGSWTYYSDTVTGRFTFSLDTSKSTAYLQMNSLRAEDTAVYYCARQLWGYYALDIWGQGTLVTVSS
# VL: DIQLTQSPSSLSASVGDRVTITCSASISVSYMYWYQQKPGKAPKLLIYEMSNLASGVPSRFSGSGSGTDFTLTISSLQPEDFATYYCMQWSGYPYTFGQGTKVEIK
# notes: see m39
# B18: anti-IL-6 Fab, heavy chain T65Y (Fab, V domains shown)
# VH: EVQLVESGGGLVQPGGSLRLSCAASGFTFSPFAMSWVRQAPGKGLEWVAKISPGGSWTYYSDTVYGRFTFSLDTSKSTAYLQMNSLRAEDTAVYYCARQLWGYYALDIWGQGTLVTVSS
# VL: DIQLTQSPSSLSASVGDRVTITCSASISVSYMYWYQQKPGKAPKLLIYDMSNLASGVPSRFSGSGSGTDFTLTISSLQPEDFATYYCMQWSGYPYTFGQGTKVEIK
# notes: see m39
# B19: anti-IL-6 Fab, heavy chain W57F (Fab, V domains shown)
# VH: EVQLVESGGGLVQPGGSLRLSCAASGFTFSPFAMSWVRQAPGKGLEWVAKISPGGSFTYYSDTVTGRFTFSLDTSKSTAYLQMNSLRAEDTAVYYCARQLWGYYALDIWGQGTLVTVSS
# VL: DIQLTQSPSSLSASVGDRVTITCSASISVSYMYWYQQKPGKAPKLLIYDMSNLASGVPSRFSGSGSGTDFTLTISSLQPEDFATYYCMQWSGYPYTFGQGTKVEIK
# notes: see m39
# B20: anti-IL-6 Fab, light chain A54G (Fab, V domains shown)
# VH: EVQLVESGGGLVQPGGSLRLSCAASGFTFSPFAMSWVRQAPGKGLEWVAKISPGGSWTYYSDTVTGRFTFSLDTSKSTAYLQMNSLRAEDTAVYYCARQLWGYYALDIWGQGTLVTVSS
# VL: DIQLTQSPSSLSASVGDRVTITCSASISVSYMYWYQQKPGKAPKLLIYDMSNLGSGVPSRFSGSGSGTDFTLTISSLQPEDFATYYCMQWSGYPYTFGQGTKVEIK
# notes: see m39
# B21: anti-IL-6 Fab, heavy chain V48L (Fab, V domains shown)
# VH: EVQLVESGGGLVQPGGSLRLSCAASGFTFSPFAMSWVRQAPGKGLEWLAKISPGGSWTYYSDTVTGRFTFSLDTSKSTAYLQMNSLRAEDTAVYYCARQLWGYYALDIWGQGTLVTVSS
# VL: DIQLTQSPSSLSASVGDRVTITCSASISVSYMYWYQQKPGKAPKLLIYDMSNLASGVPSRFSGSGSGTDFTLTISSLQPEDFATYYCMQWSGYPYTFGQGTKVEIK
# notes: see m39
# B22: anti-IL-6 Fab, light chain A25S (Fab, V domains shown)
# VH: EVQLVESGGGLVQPGGSLRLSCAASGFTFSPFAMSWVRQAPGKGLEWVAKISPGGSWTYYSDTVTGRFTFSLDTSKSTAYLQMNSLRAEDTAVYYCARQLWGYYALDIWGQGTLVTVSS
# VL: DIQLTQSPSSLSASVGDRVTITCSSSISVSYMYWYQQKPGKAPKLLIYDMSNLASGVPSRFSGSGSGTDFTLTISSLQPEDFATYYCMQWSGYPYTFGQGTKVEIK
# notes: see m39
# Molecular target: recombinant human IL-6 (human, UniProt P05231 30-212)
# Assay: SPR, IL-6 on CM5 chip, Fab lysate, 25 C
# recombinant human IL-6, sequence (P05231 30-212 limits assumed): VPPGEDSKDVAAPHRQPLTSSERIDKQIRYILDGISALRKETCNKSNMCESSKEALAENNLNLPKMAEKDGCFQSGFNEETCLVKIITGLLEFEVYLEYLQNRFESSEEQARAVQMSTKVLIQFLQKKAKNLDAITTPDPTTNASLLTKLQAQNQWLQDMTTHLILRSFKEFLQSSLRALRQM
binder,measurement,value
B1,koff,0.00615 s⁻¹
B2,koff,0.00493 s⁻¹
B3,koff,0.00498 s⁻¹
B4,koff,0.00525 s⁻¹
B5,koff,0.005 s⁻¹
B6,koff,0.00501 s⁻¹
B7,koff,0.00489 s⁻¹
B8,koff,0.00684 s⁻¹
B9,koff,0.00593 s⁻¹
B10,koff,0.00594 s⁻¹
B11,koff,0.00592 s⁻¹
B12,koff,0.00479 s⁻¹
B13,koff,0.00503 s⁻¹
B14,koff,0.00569 s⁻¹
B15,koff,0.0034 s⁻¹
B16,koff,0.00643 s⁻¹
B17,koff,0.00619 s⁻¹
B18,koff,0.00574 s⁻¹
B19,koff,0.00615 s⁻¹
B20,koff,0.00498 s⁻¹
B21,koff,0.00517 s⁻¹
B22,koff,0.0048 s⁻¹
